Kd and koff data for two substances are collected here from publication PMC11055898.

What all share (experiment): SPR
In assay [1] the target is mouse neonatal Fc receptor (FcRn) (mouse) (UniProt Q61559).
Assay [2] addresses human FcRn.
Assay [3] addresses mouse CD16-2.
In assay [4] the target is mouse CD64.
The target of assay [5] is human CD64 (FcgRI) (human) (UniProt P12314).
human CD64 (FcgRI) (human), sequence (P12314 16-374): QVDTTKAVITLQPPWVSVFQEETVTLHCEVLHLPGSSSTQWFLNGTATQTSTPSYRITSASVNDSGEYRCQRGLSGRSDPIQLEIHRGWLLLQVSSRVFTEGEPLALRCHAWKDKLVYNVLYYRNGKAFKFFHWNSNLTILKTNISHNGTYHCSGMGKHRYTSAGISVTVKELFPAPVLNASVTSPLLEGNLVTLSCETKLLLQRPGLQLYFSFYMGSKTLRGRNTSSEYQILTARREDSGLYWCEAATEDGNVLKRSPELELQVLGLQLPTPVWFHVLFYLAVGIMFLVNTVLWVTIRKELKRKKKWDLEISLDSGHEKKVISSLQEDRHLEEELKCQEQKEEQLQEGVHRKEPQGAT

human IgG3 (antibody specific for the receptor binding domain of SARS-CoV-2, clone not named), sequence (P01860 whole entry, looked up, the tested form may be a part): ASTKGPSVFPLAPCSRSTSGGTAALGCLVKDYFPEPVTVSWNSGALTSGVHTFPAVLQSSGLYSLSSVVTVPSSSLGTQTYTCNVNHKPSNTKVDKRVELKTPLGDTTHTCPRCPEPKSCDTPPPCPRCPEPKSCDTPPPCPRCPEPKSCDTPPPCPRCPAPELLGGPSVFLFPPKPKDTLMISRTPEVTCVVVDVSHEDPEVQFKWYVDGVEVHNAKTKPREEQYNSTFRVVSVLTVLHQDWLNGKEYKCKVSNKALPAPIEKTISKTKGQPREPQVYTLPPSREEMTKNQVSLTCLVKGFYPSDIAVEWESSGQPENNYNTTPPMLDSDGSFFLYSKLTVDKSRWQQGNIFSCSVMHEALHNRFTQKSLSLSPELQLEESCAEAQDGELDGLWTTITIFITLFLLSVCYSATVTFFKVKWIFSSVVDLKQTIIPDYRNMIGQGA
mouse neonatal Fc receptor (FcRn) (mouse), sequence (Q61559 22-297): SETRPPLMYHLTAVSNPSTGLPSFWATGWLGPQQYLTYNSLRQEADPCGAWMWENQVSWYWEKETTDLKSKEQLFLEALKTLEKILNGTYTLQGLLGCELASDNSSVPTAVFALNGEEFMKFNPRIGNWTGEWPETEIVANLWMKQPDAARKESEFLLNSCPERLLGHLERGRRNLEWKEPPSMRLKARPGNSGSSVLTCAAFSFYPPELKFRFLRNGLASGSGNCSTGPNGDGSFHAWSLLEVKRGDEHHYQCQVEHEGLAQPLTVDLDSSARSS

As for “human IgG1 (antibody specific for the receptor binding domain of SARS-CoV-2, clone not named) (from UniProt P01857)”, the Kd in assay [1] was determined as 0.0099 µM; in assay [2], 0.3 µM; in assay [3], 0.415 µM; in assay [4], 0.246 µM; in assay [5], 0.0024 µM. Moreover, the koff in assay [1] came out at 0.001 s⁻¹; in assay [2] it was 0.088 s⁻¹; in assay [3], 0.0275 s⁻¹; in assay [4], 0.062 s⁻¹; in assay [5] it was 0.00014 s⁻¹.
“human IgG3 (antibody specific for the receptor binding domain of SARS-CoV-2, clone not named) (from UniProt P01860)”: in assay [4], the Kd worked out at 0.014 µM and the koff was determined as 0.0014 s⁻¹. In assay [5], this substance had a Kd of 0.0081 µM and a koff of 0.00033 s⁻¹.
